We go through 13 molecules from US11912763 (dated 2024).

“And” between values parts separate entries of the source, which are not always exact repeats. Identical values can stand only once. Like-named read-outs stand apart in the source and are kept apart here.

Usually EC50 stands for the midpoint of the concentration-response curve. A high value points to a need for much substance. By Kd is commonly meant a measure of binding affinity in units of concentration.

Test [1] deals with T1, mouse CLDN18.2 (mouse, UniProt P56857).
T1 chain: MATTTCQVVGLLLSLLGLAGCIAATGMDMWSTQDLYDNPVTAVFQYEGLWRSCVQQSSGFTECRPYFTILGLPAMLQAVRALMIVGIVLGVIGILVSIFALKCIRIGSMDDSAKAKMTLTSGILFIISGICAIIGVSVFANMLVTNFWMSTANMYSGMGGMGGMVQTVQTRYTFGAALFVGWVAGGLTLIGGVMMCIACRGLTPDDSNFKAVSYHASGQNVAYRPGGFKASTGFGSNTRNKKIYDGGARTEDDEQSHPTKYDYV
Nature of the test: ELISA. For orientation: An ELISA detects its analyte on a solid surface through an enzyme-linked reagent.

For test [2], the target named is T2, human CLDN18.2 (human, UniProt P56856). In words: ELISA.
Test [3] deals with T2, human CLDN18.2. In words: ELISA. The source holds these as a separate data set.
The target in test [4] is T2, human CLDN18.2. Nature of the test: ELISA. The source holds these as a separate data set.
The target of test [5] is T2, human CLDN18.2. Nature of the test: ELISA. This is another data set of the same source.
Test [6] concerns the target T2, human CLDN18.2. In words: ELISA. The source holds these as a separate data set.
Test [7] addresses T2, human CLDN18.2. Nature of the test: ELISA. This is another data set of the same source.
Test [8] deals with T2, human CLDN18.2. In words: ELISA. This is another data set of the same source.
The target in test [9] is T2, human CLDN18.2. Nature of the test: ELISA. The source holds these as a separate data set.
The target of test [10] is T2, human CLDN18.2. In words: ELISA. This is another data set of the same source.
Test [11] has as its target T2, human CLDN18.2. In words: ELISA. This is another data set of the same source.
In test [12] the target is T2, human CLDN18.2. Nature of the test: ELISA. The source holds these as a separate data set.
Test [13] addresses T3, human CLDN18.1 (human, UniProt P56856).
T3 chain: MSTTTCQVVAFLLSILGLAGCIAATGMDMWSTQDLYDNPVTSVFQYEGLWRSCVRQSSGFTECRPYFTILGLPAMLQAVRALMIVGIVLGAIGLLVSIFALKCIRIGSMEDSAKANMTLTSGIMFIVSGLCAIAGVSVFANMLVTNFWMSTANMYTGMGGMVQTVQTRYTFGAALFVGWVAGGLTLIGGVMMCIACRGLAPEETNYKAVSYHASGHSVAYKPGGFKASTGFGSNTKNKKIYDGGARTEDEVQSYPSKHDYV
In words: ELISA.

Test [14] deals with T2, human CLDN18.2. Nature of the test: KinExA.
Test [15] has as its target T2, human CLDN18.2. Nature of the test: ELISA, serum 0 h.
The target of test [16] is T2, human CLDN18.2. In words: ELISA, serum 24 h.
For test [17], the target named is T2, human CLDN18.2. In words: ELISA, serum 72 h.
Test [18] addresses T3, human CLDN18.1. In words: ELISA.
Test [19] has as its target T1, mouse CLDN18.2. Nature of the test: ELISA.

B1: Ab10 (antibody)
chain 1: QVQLVQSGAEVKKPGSSVKVSCKASGYAFSNYLIEWVKQAPGQGLEWIGLINPGSGGTNYNEKFKGKATITADKSTSTAYMELSSLRSEDTAVYYCARVYYGNSFAYWGQGTLVTVSS
chain 2: DIVMTQSPDSLAVSLGERATISCKSSQSLLNSGNQKNYLTWYQQKPGQPPKLLIYWASTRESGVPDRFSGSGSGTDFTLTISSLQAEDVAVYYCQNDYFYPFTFGQGTKLEIK
Consider B1, for which the EC50 in test [1] came to 0.371 nM; in [2] it was 0.51 nM; in test [3], 0.117 nM; in test [4] it was 0.164 nM; in test [5] it was 0.151 nM; in [6], 0.208 nM. In addition, the EC50 in [7] is 0.157 nM; in test [8], 0.36 nM and 0.69 nM; in test [9], 0.38 nM; in test [10], 0.69 nM; in test [11], 0.42 nM; in test [12], 0.2 nM. In [13], the binding result was “no binding”. Binding in test [14] was put at a Kd of 0.0133 nM.

B2: LB432 CLDN18.2 arm (antibody)
chain 1: QVQLVQSGAEVKKPGSSVKVSCKASGYAFSNYLIEWVKQAPGQGLEWIGLINPGSGGTNYNEKFKGKATITADKSTSTAYMELSSLRSEDTAVYYCARVYYGNSFAYWGQGTLVTVSS
chain 2: DIVMTQSPDSLAVSLGERATISCKSSQSLLNSGNQKNYLTWYQQKPGQPPKLLIYWASTRESGVPDRFSGSGSGTDFTLTISSLQAEDVAVYYCQNDYFYPFTFGQGTKLEIK
Regarding B2, the EC50 in test [9] came out at 0.74 nM; in test [15] it was 0.357 nM; in [16] it was 0.535 nM; in test [17] it was 1.2 nM.

B3: Ab8 (antibody, V domains shown)
VH: QVQLVQSGAEVKKPGSSVKVSCKASGYAFSNYLIEWVKQAPGQGLEWIGLINPGSGGTNYNEKFKGKATLTADKSTSTAYMELSSLRSEDTAVYFCARVYYGNSFAYWGQGTLVTVSS
VL: DIVMTQSPDSLAVSLGERATISCKSSQSLLNSGNQKNYLTWYQQKPGQPPKLLIYWASTRESGVPDRFSGSGSGTDFTLTISSLQAEDVAVYYCQNDYFYPFTFGQGTKLEIKR
In the case of B3, the EC50 in test [3] was 0.227 nM. For the same molecule, the binding result in test [13] is “no binding”.

B4: Ab7 (antibody, V domains shown)
VH: QVQLVQSGAEVKKPGSSVKVSCKASGYAFSNYLIEWVKQAPGQGLEWIGLINPGSGGTNYNEKFKGKATITADKSTSTAYMELSSLRSEDTAVYYCARVYYGNSFAYWGQGTLVTVSS
VL: DIVMTQSPDSLAVSLGERATISCKSSQSLLNSGNQKNYLTWYQQKPGQPPKLLIYWASTRESGVPDRFSGSGSGTHFTLTISSLQAEDVAVYYCQNDYFYPFTFGQGTKLEIKR
For the molecule B4, the EC50 in test [3] was 0.282 nM. For the same molecule, in test [13], the binding result is given as “no binding”.

B5: Ab6 (antibody, V domains shown)
VH: QVQLVQSGAEVKKPGSSVKVSCKASGYAFSNYLIEWVKQAPGQGLEWIGLINPGSGGTNYNEKFKGKATITADKSTSTAYMELSSLRSEDTAVYYCARVYYGNSFAYWGQGTLVTVSS
VL: DIVMTQSPDSLAVSLGERATISCKSSQSLLNSGNNKNYLAWYQQKPGQPPKLLIYWASTRESGVPDRFSGSGSGTDFTLTISSLQAEDVAVYYCQNDYFYPFTFGQGTKLEIK
As for B5, the values for the EC50 in test [1], in test [6] and in test [12] were 0.594 nM, 0.22 nM and 0.222 nM, respectively. Besides, in [18], the binding result is “no binding”.

B6: Ab9 (antibody, V domains shown)
VH: QVQLVQSGAEVKKPGSSVKVSCKASGYAFSNYLIEWVKQAPGQGLEWIGLINPGSGGTNYNEKFKGKATLTADKSTSTAYMELSSLRSEDTAVYFCARVYYGNSFAYWGQGTLVTVSS
VL: DIVMTQSPDSLAVSLGERATISCKSSQSLLNSGNQKNYLTWYQQKPGQPPKLLIYWASTRESGVPDRFSGSGSGTHFTLTISSLQAEDVAVYYCQNDYFYPFTFGQGTKLEIKR
With B6, it took 0.339 nM to reach a half-maximal effect in test [3] (EC50). Besides, the binding result in test [13] is listed as “no binding”.

B7: ADC1 (antibody)
chain 1: QVQLVQSGAEVKKPGSSVKVSCKASGYAFSNYLIEWVKQAPGQGLEWIGLINPGSGGTNYNEKFKGKATITADKSTSTAYMELSSLRSEDTAVYYCARVYYGNSFAYWGQGTLVTVSS
chain 2: DIVMTQSPDSLAVSLGERATISCKSSQSLLNSGNQKNYLTWYQQKPGQPPKLLIYWASTRESGVPDRFSGSGSGTDFTLTISSLQAEDVAVYYCQNDYFYPFTFGQGTKLEIK
modifications: Ab10 SMCC-DM1 conjugate
The molecule B7 yielded an EC50 in test [4] of 0.344 nM. In other words, the sub-nanomolar range.

B8: Ab15 (antibody, V domains shown)
VH: QVQLVQSGAEVKKPGSSVKVSCKASGYAFSNYLIEWVKQAPGQGLEWIGLINPGSGGTNYNEKFKGKATITADKSTSTAYMELSSLRSEDTAVYYCARVYYGNSFAYWGQGTLVTVSS
VL: DIVMTQSPDSLAVSLGERATINCKSSQSLLNSGNNKNYLAWYQQKPGQPPKLLIYWASTRESGVPDRFSGSGSGTDFTLTISSLQAEDVAVYYCQNDYFYPFTFGQGTKLEIKR
On to B8, for which, in test [18], the binding result was “no binding”. Also, the midpoint of the response in [12], the EC50, lay at 0.219 nM.

B9: LB155 CLDN18.2 arm (antibody)
chain 1: QVQLVQSGAEVKKPGSSVKVSCKASGYAFSNYLIEWVKQAPGQGLEWIGLINPGSGGTNYNEKFKGKATITADKSTSTAYMELSSLRSEDTAVYYCARVYYGNSFAYWGQGTLVTVSS
chain 2: DIVMTQSPDSLAVSLGERATISCKSSQSLLNSGNQKNYLTWYQQKPGQPPKLLIYWASTRESGVPDRFSGSGSGTDFTLTISSLQAEDVAVYYCQNDYFYPFTFGQGTKLEIK
In turn, B9 showed an EC50 in [8] of 0.59 nM.

B10: Ab36 (antibody, V domains shown)
VH: QVQLVQSGAEVKKPGSSVKVSCKASGYAFSNYLIEWVKQAPGQGLEWIGLINPGSGGTNYNEKFKGKATITADKSTSTAYMELSSLRSEDTAVYYCARVYYGNTFAYWGQGTLVTVSS
VL: DIVMTQSPDSLAVSLGERATISCKSSQSLLNTGNNKNYLAWYQQKPGQPPKLLIYWASTRESGVPDRFSGSGSGTDFTLTISSLQAEDVAVYYCQNDYFYPFTFGQGTKLEIK
B10: the 50% effective concentration (EC50) came out at 0.518 nM in test [1] and 0.211 nM in test [6].

B11: ADC2 (antibody)
chain 1: QVQLVQSGAEVKKPGSSVKVSCKASGYAFSNYLIEWVKQAPGQGLEWIGLINPGSGGTNYNEKFKGKATITADKSTSTAYMELSSLRSEDTAVYYCARVYYGNSFAYWGQGTLVTVSS
chain 2: DIVMTQSPDSLAVSLGERATISCKSSQSLLNSGNQKNYLTWYQQKPGQPPKLLIYWASTRESGVPDRFSGSGSGTDFTLTISSLQAEDVAVYYCQNDYFYPFTFGQGTKLEIK
modifications: Ab10 MC-VC-PAB-MMAF conjugate
B11 returned an EC50 in test [4] of 0.31 nM.

B12: Ab35 (antibody, V domains shown)
VH: QVQLVQSGAEVKKPGSSVKVSCKASGYAFSNYLIEWVKQAPGQGLEWIGLINPGSGGTNYNEKFKGKATITADKSTSTAYMELSSLRSEDTAVYYCARVYYGNTFAYWGQGTLVTVSS
VL: DIVMTQSPDSLAVSLGERATISCKSSQSLLNTGNQKNYLTWYQQKPGQPPKLLIYWASTRESGVPDRFSGSGSGTDFTLTISSLQAEDVAVYYCQNDYFYPFTFGQGTKLEIK
In turn, B12 registered an EC50 in [6] of 62.1 nM. For the same molecule, the binding result in [19] is listed as “no binding”.

B13: LB195 CLDN18.2 arm (antibody)
chain 1: QVQLVQSGAEVKKPGSSVKVSCKASGYAFSNYLIEWVKQAPGQGLEWIGLINPGSGGTNYNEKFKGKATITADKSTSTAYMELSSLRSEDTAVYYCARVYYGNSFAYWGQGTLVTVSS
chain 2: DIVMTQSPDSLAVSLGERATISCKSSQSLLNSGNQKNYLTWYQQKPGQPPKLLIYWASTRESGVPDRFSGSGSGTDFTLTISSLQAEDVAVYYCQNDYFYPFTFGQGTKLEIK
In turn, B13 registered an EC50 in test [8] of 0.5 nM.
